Measurements taken from publication PMC8046669, “Structural basis of nucleosome transcription mediated by Chd1 and FACT” (Nature Structural & Molecular Biology, 2021).

Biological target: T1, S. cerevisiae FACT (heterodimer of Spt16 and Pob3) (S. cerevisiae, UniProt P32558 1-1035; Q04636 1-552)
T1 construct: Spt16, subunit of FACT, S. cerevisiae; Pob3, subunit of FACT, S. cerevisiae
Test: SEC; size exclusion chromatography runs of Chd1 constructs with FACT, fractions analysed by SDS-PAGE
Conditions: both partners purified

T1 sequence (P32558 whole entry, chain 1 of 2): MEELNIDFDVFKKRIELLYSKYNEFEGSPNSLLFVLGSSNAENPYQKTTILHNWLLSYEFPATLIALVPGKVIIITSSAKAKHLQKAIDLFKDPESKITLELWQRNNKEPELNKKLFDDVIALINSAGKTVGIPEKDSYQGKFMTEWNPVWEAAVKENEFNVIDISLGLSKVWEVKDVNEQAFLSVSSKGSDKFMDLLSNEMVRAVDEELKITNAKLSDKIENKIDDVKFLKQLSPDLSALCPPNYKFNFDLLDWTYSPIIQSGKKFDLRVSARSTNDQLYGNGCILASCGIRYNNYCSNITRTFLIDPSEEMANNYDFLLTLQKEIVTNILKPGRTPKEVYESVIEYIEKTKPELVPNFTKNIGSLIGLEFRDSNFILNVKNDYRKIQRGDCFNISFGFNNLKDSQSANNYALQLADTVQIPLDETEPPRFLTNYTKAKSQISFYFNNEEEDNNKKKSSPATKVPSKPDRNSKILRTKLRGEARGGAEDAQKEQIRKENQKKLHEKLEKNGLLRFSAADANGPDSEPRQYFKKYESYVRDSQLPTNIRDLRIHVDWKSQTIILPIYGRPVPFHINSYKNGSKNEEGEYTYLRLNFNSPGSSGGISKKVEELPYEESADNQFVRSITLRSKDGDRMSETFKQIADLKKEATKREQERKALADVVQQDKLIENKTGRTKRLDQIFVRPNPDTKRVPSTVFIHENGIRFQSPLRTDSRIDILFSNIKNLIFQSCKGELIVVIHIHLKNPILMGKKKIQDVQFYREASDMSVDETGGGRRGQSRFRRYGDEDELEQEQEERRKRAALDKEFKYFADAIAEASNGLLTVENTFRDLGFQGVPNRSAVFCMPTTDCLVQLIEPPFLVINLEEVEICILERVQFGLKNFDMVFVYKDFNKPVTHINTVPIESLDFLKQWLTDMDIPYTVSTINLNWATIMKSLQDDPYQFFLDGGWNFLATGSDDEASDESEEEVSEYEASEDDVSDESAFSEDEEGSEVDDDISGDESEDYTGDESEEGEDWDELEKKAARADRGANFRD
T1 sequence (Q04636 whole entry, chain 2 of 2): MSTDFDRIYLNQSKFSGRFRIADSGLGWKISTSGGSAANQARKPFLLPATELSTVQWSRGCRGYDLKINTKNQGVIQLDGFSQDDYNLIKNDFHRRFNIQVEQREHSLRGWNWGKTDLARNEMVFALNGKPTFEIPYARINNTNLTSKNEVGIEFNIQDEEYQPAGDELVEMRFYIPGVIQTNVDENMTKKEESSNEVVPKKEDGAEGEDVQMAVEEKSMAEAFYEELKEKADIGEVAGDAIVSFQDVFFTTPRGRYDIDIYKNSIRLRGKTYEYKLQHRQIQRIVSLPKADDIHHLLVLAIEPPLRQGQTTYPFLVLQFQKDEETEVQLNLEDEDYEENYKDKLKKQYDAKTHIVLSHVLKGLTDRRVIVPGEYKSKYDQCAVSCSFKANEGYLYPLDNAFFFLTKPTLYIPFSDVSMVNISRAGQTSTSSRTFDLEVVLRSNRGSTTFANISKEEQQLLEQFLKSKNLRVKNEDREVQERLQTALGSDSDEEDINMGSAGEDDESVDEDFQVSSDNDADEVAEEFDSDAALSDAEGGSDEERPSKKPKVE

B1: S. cerevisiae Chd1 (enzyme)
chain: not shown
notes: Chd1, S. cerevisiae, chromatin remodeler; 1468 residues by the printed limits of the truncations; also called full-length Chd1
- binding result: binds
